This sample holds only a part of the variants without activity.
B1: TPR 5TU (parent)
chain: GGAUCUUCUCGAUCUAACAAAAAAGACAAAUCUGCCACAAAGCUUGAGAGCAUCUUCGGAUGCAGAGGCGGCAGCCUUCGGUGGCGCGAUAGCGCCAACGUUCUCAACUAUGACACGCAAAACGCGUGCUCCGUUGAAUGGAGUUUAUCAUG

Variants of: B1
Assay: polymerase ribozyme fitness, log enrichment relative to wild type (log ratio); higher = more active; in vitro selection for triplet polymerase activity
Outline: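 A single round of triplicate in vitro selection, including frozen incubation at −7 °C, was applied to PCR-built, transcribed mutant libraries of each subunit of a heterodimeric triplet polymerase ribozyme. Illumina sequencing of input and output libraries retained genotypes with ≥10 input reads and ≥1 read per output. Fitness is the base-2 logarithm of genotype enrichment divided by wild-type enrichment, from inverse-variance-weighted replicate averages.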

Variant | polymerase ribozyme fitness (log ratio)
C38A G80A G94A A97G C99G C131U G133C | ≤ -4.2
C35U U45A G59C C93G U144A | ≤ -4.2
C35U U56A | 0.225
C35A A98U A107U A137U | ≤ -4.2
C35U U53A G92U C103U C114G A115U A122U | ≤ -4.2
C36U C87U C93A C95G | ≤ -4.2
C36A G74C | ≤ -4.2
C36U C57G C69A U134C | -2.32
A37U C95U A122G | -1.77
C38A A89U C93A G128A | ≤ -4.2
A37C C118U A121G | 0.0889
A37C U61A | -1.77
C35U A52C U90A C95U A122C | ≤ -4.2
A37U G81U C85U A137C | ≤ -4.2
C35U G124A | -0.554
C35U A39U G50A C51U G83A C123U | ≤ -4.2
A37C G84U U127G G128A U134G | ≤ -4.2
C35A C79U C99U C103U | ≤ -4.2
C35U A60G G83A A150G | -2.56
C36G A39U A40U A60G U104A G136U G141A | ≤ -4.2
C38A A64C G88C | ≤ -4.2
C38A C93U | -1.67
A37G U56A G124C U134A U144A | ≤ -4.2
C35U A97U | -2.26

Variant | polymerase ribozyme fitness (log ratio)
C38G C69A C85A C96A A97C | -3.84
C36U G59A G94U A107C G133C G140U U144G | ≤ -4.2
C38A C69G C93U U139A | ≤ -4.2
C35U C54A U55A G80C C108U U127A | ≤ -4.2
A37G C114U | -2.87
C36U U56G U61A | ≤ -4.2
C36U U53A U78A G83A U90C | ≤ -4.2
C36U A66G C87U C93U U135A | ≤ -4.2
C35A G80C G88A C103U A110G C149A | ≤ -4.2
A37G G50U C72U C105G U139C | ≤ -4.2
C36A U55A G124A G141U | ≤ -4.2
A37G C76U G80U C105U A122U | ≤ -4.2
C35U C85A C103U A119U | -2.38
C35U G58U C87U C114A A119C | -4
C36U C69A A91U G94U C118U A121U | ≤ -4.2
C35G G83C | -4.19
C35A A60U U61G A64C U82C C85A A142C | ≤ -4.2
C36A G94A A121C | -4.03
C38A U82G A91G A106C A138G | ≤ -4.2
C35G G94U A97U | -4.17
A37G G59C A147C | -2.8
C35U U77C G88A G124U | ≤ -4.2
A37G C96G | -1.89
C35G A41U G136U G141A | ≤ -4.2

Variant | polymerase ribozyme fitness (log ratio)
A37C G84U | -2.07
A37C A41C U53A U56G G59A C79U C87A A113U U134A | ≤ -4.2
C36U A106G C114G | -3.87
C36U A97U U130C | -1.25
A37C A60U C63U G86U A98G | -3.99
A37U A41U A89G A115C A150U | ≤ -4.2
C38A U45A C57A C87G U90G A107U | ≤ -4.2
C36A A89U C116A A120U | -4.18
C35G U55A C85A A113C | -3.96
A37U A39U A49C G50C G84A A98C G143U | ≤ -4.2
C36U G92C G100U G117A A122G | ≤ -4.2
A37G A40G A41G C76U C87U C93G C125G | ≤ -4.2
C36A C75A C79U A115U A120C C125U | ≤ -4.2
A37U A64G A73G G133U | -4.19
C35G C57U | ≤ -4.2
A37U G80C A91C A150U | ≤ -4.2
C38A C57U A113U | -1.65
C35U G50A U82C G141U | -4.1
A37C A41C U56A G67C C85A G126A C131A G141A | ≤ -4.2
A37U G48C | -2.02
C35U G92A | -3.33
A37C A98U | 0.384
C35G G48A G58U C79U C85U | ≤ -4.2
A37C A73G G86A | -2.34

Variant | polymerase ribozyme fitness (log ratio)
C36A A47U G74U G92C A115G C149G | ≤ -4.2
A37U C75A G84A C114U | ≤ -4.2
C36U U55A C93U U144G | -1.07
C38A A52G C63A | -1.26
A37G G84U G92A U102G G117U G140A U144A | ≤ -4.2
A37C C72U G88C A89U A138U U145G | ≤ -4.2
C36A C95U U104A C118G | ≤ -4.2
A37C G42U G58A C96A G117U U146A | ≤ -4.2
C36A A60G G143A | ≤ -4.2
C36G C69A U78C C85U U102C U127A | ≤ -4.2
A37U G59A | -0.836
C35G G126U | -4.16
A37C U45G A47C G59A C79G G81C U82C C95U | -4.18
C35U C57G G65U U144C | -4.2
C35G C85U | ≤ -4.2
C38A U61A A97G C123U | -1.68
C35U C93A C132U A147C | -4.05
C38A C51U C95U G124C | -1.51
A37C A40G G50U G86A A97U | ≤ -4.2
C35U C114U | -2.28
C35U C114A | -3.87
A37U G81A U101C U111A U148G | ≤ -4.2
C38A U55C A66G G80A U90A U127C | ≤ -4.2
C35U C95U C96A | -1.64

Variant | polymerase ribozyme fitness (log ratio)
C35U U53A U135A G143C | -4.16
C35U C93U | -1.74
C35U A107U | -4.03
A37U A66U C76A U102A G141C | ≤ -4.2
C36U G141C | -2.17
C36A U82C C93U U135G | ≤ -4.2
A37G C85G | -3.97
A37U A47G U53A G92C A106U A137G G141U | ≤ -4.2
C36U U61G U82G C85U | -3.95
C36U G50C U53A G59C U78A | ≤ -4.2
C36A U55A C57G C76A | -4.03
C35U C85G A98U A115G C132A U135A | ≤ -4.2
C38A C57A G83A | -0.895
C35G C38A C69U G84U | ≤ -4.2
C35U G65A G80U C95G G141C | -3.95
A37U U53A G68A A98U | ≤ -4.2
A37U C72A G126C | ≤ -4.2
A37U C96U | -1.52
C35G G80A A91U C105U | ≤ -4.2
C36A C85A C118U | -3.82
C35U U61A | -1.27
A37G U55A A73G U111G | ≤ -4.2
C35U A60C A98U A142G | -2.28
A37G A66U | ≤ -4.2

Variant | polymerase ribozyme fitness (log ratio)
C35A G65A U144C | ≤ -4.2
A37G C87U G136U | -3.7
C36G A52C C95U U148A A150U | ≤ -4.2
C36A U61G A64C C118A A147C | ≤ -4.2
C35U A147C | -0.582
C36A C51G C85A | ≤ -4.2
A37C G81C C85G C116G U144G | -4.04
C35A G65A | -3.77
C36G A40C G42C C54U G68A C118G C131A U135G C149A | ≤ -4.2
C35U U45G G58A U61G C76U C85A C93G U104A A107C G152A | ≤ -4.2
C35U G59A C87U U144C | -1.17
C35U C76U C96A C125G A142G | -2.86
C36A C79U G88C A113G A150U | ≤ -4.2
A37G C54U C131U | -1.58
C36U G46A G70A G83C A120U G133C | -3.23
C35U A49C G94C A98G C118U | ≤ -4.2
C36A G48A G50A C69G G71A | ≤ -4.2
C36U U56A C79G U90G A106G C125U | ≤ -4.2
C38G C54G C79U G117A | ≤ -4.2
A37C A41U G50C G81U C95U U111A C118G U127C A142C | ≤ -4.2
C36U U144C | -1.23
C36U A49C C95A U145C | ≤ -4.2
A37C G62C G86A C96G C99A | ≤ -4.2
A37G A49U C51U C85U G92A C96A A97G U144A U146G | ≤ -4.2

Variant | polymerase ribozyme fitness (log ratio)
C35U C87U C96U C114U | -3.78
C36U U82A G83A G84A G86U C93A C96U G117U | -3.98
A37U A89C U148A | ≤ -4.2
A37U A40G C76G C93A C103G | ≤ -4.2
C36A C57U C63A G86A A147G | ≤ -4.2
C36A U55A | -3.27
C35U C54A G58C | -1.17
A37G U56G G58C G59A C93G C99G C108U | ≤ -4.2
C35U A64U C116A G140C | -3.97
A37U G58C | -0.362
C35U C93G A119G | -3.76
A37C A52G G84C U130A G143C | ≤ -4.2
A37U C57U U101G | -0.608
C35U C105G G126A | -2.32
A37U C85G G86A G92C A115G | -3.98
C35A A66C U104G | ≤ -4.2
C35A C54U G94U U135G G140C | ≤ -4.2
C36A A138U U145A A147C | -3.85
C35U C54U G65U G83C C95U C103G A106G | ≤ -4.2
C38A G59U C85U U90C | ≤ -4.2
A37U G71A C125A | ≤ -4.2
A37C C123U | 0.207
A37C C51A G92U A106C | ≤ -4.2

Source: the RNAGym collection of RNA variant scans (doi:10.1073/pnas.2313332121)
